Laboratory results taken from article PMC4160017, “Poly(ADP‐ribose)‐mediated interplay of XPA and PARP1 leads to reciprocal regulation of protein function”.

Biological target: XPA (UniProt P23025 1-273)
Assay: EMSA; XPA pre-incubated with short PAR (16-20-mer), no effect on binding; EMSA: 25 mM Hepes-KOH pH 8.3, 30 mM KCl, 0.4 mM MgCl2, 1 mM EDTA, 10% glycerol, 45 ug/mL BSA, 0.9 mM DTT; 30 min; temperature not stated. Poly(ADP-ribose) overlay binding (XPA, H1, BSA, PBM peptides) not listed: PAR is not DNA/RNA
Conditions: protein: recombinant; tags: His-tag; label: biotin on the 19-mer; duplex of 19-mer and 25-mer with loop on one strand

Sequence of XPA (P23025 whole entry): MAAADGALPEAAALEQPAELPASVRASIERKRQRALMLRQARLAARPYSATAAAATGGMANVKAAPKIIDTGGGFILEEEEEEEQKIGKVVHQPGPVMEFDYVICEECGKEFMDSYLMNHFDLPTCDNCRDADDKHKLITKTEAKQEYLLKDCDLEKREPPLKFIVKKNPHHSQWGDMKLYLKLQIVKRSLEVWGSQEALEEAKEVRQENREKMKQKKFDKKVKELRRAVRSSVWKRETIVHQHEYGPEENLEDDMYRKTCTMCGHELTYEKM

B1: loop-containing duplex (19-mer annealed with 25-mer) (dsDNA)
DNA 1: ACCACCCTTCGAACCACAC
DNA 2: GTGTGGTTCGCGCGCGAAGGGTGGT
binding result: binds
